Results reported in patent publication US20240269230A1.
Ends that are not written are not given here.

What was measured:
[1] = molecular target: T1, kappa opioid receptor (the kOR), mouse, with C-terminal GFP (the kOR-EGFP) (mouse), P33534
T1 chain: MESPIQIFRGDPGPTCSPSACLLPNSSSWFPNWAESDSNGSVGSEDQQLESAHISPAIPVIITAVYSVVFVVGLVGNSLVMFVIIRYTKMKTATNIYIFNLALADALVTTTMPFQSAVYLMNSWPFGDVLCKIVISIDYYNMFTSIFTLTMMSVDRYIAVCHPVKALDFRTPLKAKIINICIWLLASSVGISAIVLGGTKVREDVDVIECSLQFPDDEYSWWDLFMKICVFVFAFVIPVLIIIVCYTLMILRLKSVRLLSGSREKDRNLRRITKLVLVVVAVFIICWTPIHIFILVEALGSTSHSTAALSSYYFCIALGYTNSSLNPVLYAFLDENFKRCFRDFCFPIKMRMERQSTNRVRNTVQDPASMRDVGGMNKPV

[2] = molecular target: T1, kappa opioid receptor (the kOR), mouse, …; test: cell-based or functional assay

GLPVCGETCVGGTCNTPGCKCSWPVCTRN (not fully specified (bridges); ends and bridges not checked) [[T20K]-kalata B1] was tested, and the Ki [1] was 2.7 µM, the cAMP assay EC50 (HEK293 cells stably expressing the kOR) [2] was 17 µM and the leftward shift in the cAMP potency of the orthosteric ligand U50,488 [2] was 9 fold.
